Results from IntAct's records for PubMed 20581830.

B1: Interferon regulatory factor 3 (Homo sapiens), Q14653 (parent)
chain: MGTPKPRILPWLVSQLDLGQLEGVAWVNKSRTRFRIPWKHGLRQDAQQEDFGIFQAWAEATGAYVPGRDKPDLPTWKRNFRSALNRKEGLRLAEDRSKDPHDPHKIYEFVNSGVGDFSQPDTSPDTNGGGSTSDTQEDILDELLGNMVLAPLPDPGPPSLAVAPEPCPQPLRSPSLDNPTPFPNLGPSENPLKRLLVPGEEWEFEVTAFYRGRQVFQQTISCPEGLRLVGSEVGDRTLPGWPVTLPDPGMSLTDRGVMSYVRHVLSCLGGGLALWRAGQWLWAQRLGHCHTYWAVSEELLPNSGHGPDGEVPKDKEGGVFDLGPFIVDLITFTEGSGRSPRYALWFCVGESWPQDQPWTKRLVMVKVVPTCLRALVEMARVGGASSLENTVDLHISNSHPLSLTSDQYKAYLQDLVEGMDFQGPGES

Variants of: B1
Conditions: with cbp_human CREBBP

Variant | effect of a mutation on the interaction
S396D;S398D;S402D;T404D;S405D | increasing interaction strength
